Like-named read-outs stand apart in the source and are kept apart here.
How the values were obtained:
[1] = biological target: huCSF-1R-huFc chimera (soluble extracellular domain) (human) (UniProt P07333); assay: competition ELISA, inhibition of CSF-1 binding to immobilized huCSF-1R-huFc
[2] = biological target: CSF-1R ECD (R&D-Systems 329-MR or in-house subcloned pCMV-presS-HisAvitag-hCSF-1R-ECD) (human) (UniProt P07333); assay: SPR cross-competition, 25 C; second antibody on CSF-1R held by captured Antibody 1; competitor <CSF-1R>10A4.1G11 (Antibody 1)
[3] = biological target: mutant CSF-1R L301S Y969F (human, UniProt P07333 20-972); assay: cell-based or functional assay
[4] = biological target: T1, full-length wildtype CSF-1R (wt CSF-1R) (human, UniProt P07333 20-972); assay: cell-based or functional assay
[5] = biological target: CSF-1R ECD (R&D-Systems 329-MR or in-house subcloned pCMV-presS-HisAvitag-hCSF-1R-ECD) (human) (UniProt P07333); assay: SPR cross-competition, 25 C; second antibody on CSF-1R held by captured Antibody 1; competitor <CSF-1R>7H5.2G10 (Antibody 1)
[6] = biological target: CSF-1R ECD (R&D-Systems 329-MR or in-house subcloned pCMV-presS-HisAvitag-hCSF-1R-ECD) (human) (UniProt P07333); assay: SPR cross-competition, 25 C; second antibody on CSF-1R held by captured Antibody 1; competitor SC-02, clone 2-4A5 (Antibody 1)
[7] = biological target: CSF-1R ECD (R&D-Systems 329-MR or in-house subcloned pCMV-presS-HisAvitag-hCSF-1R-ECD) (human) (UniProt P07333); assay: SPR (BIACORE A100), 35 C, antibody captured, CSF-1R ECD in solution
[8] = biological target: T1, full-length wildtype CSF-1R (wt CSF-1R); assay: cell-based or functional assay; remark: listed apart in the source
[9] = biological target: T1, full-length wildtype CSF-1R (wt CSF-1R); assay: cell-based or functional assay; remark: listed apart in the source
[10] = biological target: T1, full-length wildtype CSF-1R (wt CSF-1R); assay: cell-based or functional assay; remark: listed apart in the source
[11] = biological target: T2, CSF-1R ECD (R&D-Systems 329-MR or in-house subcloned pCMV-presS-HisAvitag-hCSF-1R-ECD) (human, UniProt P07333 20-517); assay: SPR (BIACORE A100), 35 C, antibody captured, CSF-1R ECD in solution
T2 construct: also called CSF-1R (R&D-Systems Cat. No. 329-MR)
Procedure: For affinity measurements 36 μg/ml anti mouse Fcγ antibodies (from goat, Jackson Immuno Reasearch JIR115-005-071) have been coupled to the chip surface for capturing the antibodies against CSF-1R. CSF-1R ECD (R&D-Systems 329-MR or in-house subcloned pCMV-presS-H isAvitag-hCSF-1R-ECD were added in various concentrations in solution. Association was measured by an CSF-1R-injection of 1.5 minutes at 35° C.; dissociation was measured by washing the chip surface with buffer for 10 minutes at 35° C. Anti CSF-IR SC-02, clone 2-4A5 (Santa Cruz Biotechnology, US; see also Sherr, C. J., et al., Cell 41 (1985) 665-676), which inhibits the ligand-receptor interaction, was used as reference control.

[12] = biological target: T3, huCSF-1R-huFc chimera (soluble extracellular domain) (human, UniProt P07333 20-517); assay: competition ELISA, inhibition of CSF-1 binding to immobilized huCSF-1R-huFc
T3 construct: also called huCSF-1R ECDhuFc chimera; not shown: human Fc
Procedure: At the beginning, plates were coated with […] goat F(ab′)₂ biotinylated anti Fcγ (Jackson ImmunoResearch., Cat. No. 109-006-170) for 1 hour (h).
Thereafter the wells were blocked with PBS supplemented with 0.2% Tween®-20 and 2% BSA (Roche Diagnostics GmbH, DE) for 0.5 h. 75 ng/ml of huCSF-1R-huFc chimera (soluble extracellular domain) was immobilized to plate for 1 h. Then dilutions of purified antibodies in PBS/0.05% Tween20/0.5% BSA were incubated for 1 h. After adding a mixture of 3 ng/ml CSF-1 (Biomol, DE, Cat. No. 60530), 50 ng/ml biotinylated anti CSF-1 clone BAF216 (R&D Systems, UK) and 1:5000 diluted streptavidin HRP (Roche Diagnostics GmbH, DE, Cat. No. 11089153001) for 1 h the plates were washed 6 times with PBST. Anti CSF-IR SC-02, clone 2-4A5 (Santa Cruz Biotechnology, US), which inhibits the ligand-receptor interaction, was used as positive control. Plates were developed with freshly prepared BM Blue® POD substrate solution (BM Blue®: 3,3″-5,5″-Tetramethylbenzidine, Roche Diagnostics GmbH, DE, Cat. No. 11484281001) for 30 minutes at RT. Absorbance was measured at 370 nm. […]

T3 sequence (P07333 20-517, change not shown): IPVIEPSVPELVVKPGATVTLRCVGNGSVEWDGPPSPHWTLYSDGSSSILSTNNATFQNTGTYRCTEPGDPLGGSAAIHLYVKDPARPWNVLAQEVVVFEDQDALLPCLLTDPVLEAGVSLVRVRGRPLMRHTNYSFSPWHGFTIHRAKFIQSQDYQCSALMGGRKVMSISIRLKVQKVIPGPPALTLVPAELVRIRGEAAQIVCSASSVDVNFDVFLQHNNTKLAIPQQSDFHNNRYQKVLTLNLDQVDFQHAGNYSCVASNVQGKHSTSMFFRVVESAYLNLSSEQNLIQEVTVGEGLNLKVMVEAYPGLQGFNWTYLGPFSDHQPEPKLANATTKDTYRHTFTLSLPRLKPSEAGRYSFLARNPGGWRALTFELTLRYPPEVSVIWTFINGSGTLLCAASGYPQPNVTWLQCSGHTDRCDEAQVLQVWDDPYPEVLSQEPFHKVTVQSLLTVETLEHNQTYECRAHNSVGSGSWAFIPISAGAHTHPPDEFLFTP
T2 sequence (P07333 20-517 limits assumed): as the sequence (P07333 20-517, change not shown) above
Chain of CSF-1R ECD (R&D-Systems 329-MR or in-house subcloned pCMV-presS-HisAvitag-hCSF-1R-ECD) (human) (P07333 20-517 limits assumed): as the sequence (P07333 20-517, change not shown) above
Chain of mutant CSF-1R L301S Y969F (P07333 20-972 L301S/Y969F limits assumed): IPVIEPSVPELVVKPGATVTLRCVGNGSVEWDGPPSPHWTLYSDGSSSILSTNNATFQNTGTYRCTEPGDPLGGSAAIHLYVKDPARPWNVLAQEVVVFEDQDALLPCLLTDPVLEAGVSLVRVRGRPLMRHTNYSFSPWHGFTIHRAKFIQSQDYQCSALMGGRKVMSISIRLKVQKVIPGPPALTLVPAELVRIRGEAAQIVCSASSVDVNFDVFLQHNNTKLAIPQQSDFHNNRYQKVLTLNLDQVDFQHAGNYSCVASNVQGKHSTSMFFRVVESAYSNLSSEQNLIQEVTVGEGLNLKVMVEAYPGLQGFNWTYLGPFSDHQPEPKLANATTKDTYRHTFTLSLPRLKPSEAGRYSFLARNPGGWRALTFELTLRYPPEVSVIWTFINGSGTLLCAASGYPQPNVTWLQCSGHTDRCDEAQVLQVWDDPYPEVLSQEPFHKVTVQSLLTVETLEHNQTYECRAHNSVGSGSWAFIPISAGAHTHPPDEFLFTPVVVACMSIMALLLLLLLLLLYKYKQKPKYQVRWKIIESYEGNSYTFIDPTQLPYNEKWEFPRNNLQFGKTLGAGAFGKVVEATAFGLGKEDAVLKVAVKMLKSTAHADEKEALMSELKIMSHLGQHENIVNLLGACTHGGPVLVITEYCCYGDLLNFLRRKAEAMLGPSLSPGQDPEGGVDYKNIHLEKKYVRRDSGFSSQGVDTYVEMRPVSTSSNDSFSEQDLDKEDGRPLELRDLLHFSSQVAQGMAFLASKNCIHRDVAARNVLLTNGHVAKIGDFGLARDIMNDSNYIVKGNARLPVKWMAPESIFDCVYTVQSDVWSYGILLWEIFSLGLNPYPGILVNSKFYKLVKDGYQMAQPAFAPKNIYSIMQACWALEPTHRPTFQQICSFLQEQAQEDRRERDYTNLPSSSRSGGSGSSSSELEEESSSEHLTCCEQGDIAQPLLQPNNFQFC
T1 sequence (P07333 20-972 limits assumed): as the sequence (P07333 20-972 L301S/Y969F limits assumed) above, with S282L, F950Y counted along it
Chain of huCSF-1R-huFc chimera (soluble extracellular domain) (human) (P07333 20-517, change not shown): as the sequence (P07333 20-517, change not shown) above

Row | Molecule | % survival, NIH3T Cells expressing Mutant CSF-1R, 10 ug/ml antibody [3] [%] | IC50 CSF-1R Phosphorylation [8] [ng/mL] | IC50 [nM], inhibition of the survival of monocytes [9] [nM] | % survival, NIH3T Cells expressing wtCSF-1R, 10 ug/ml antibody [10] [%] | Kd [11] [nM] | koff [11] [s⁻¹] | kon [11] [M⁻¹ s⁻¹] | t1/2 [11] [min] | IC50 [12] [µg/mL] | other results
1 | Anti CSF-1R SC-02, clone 2-4A5 (Santa Cruz Biotechnology, US) (antibody) | 66 | – | – | – | – | – | – | – | – | IC50 [1]: 0.0309 µg/mL; percentage (%) of expected binding response [2]: 24%; % inhibition 10 ug/ml antibody concentration, BeWo tumor cells in 3D culture [4]: 40%; % survival, NIH3T Cells expressing wtCSF-1R, 10 ug/ml antibody [4]: 62%; IC50 CSF-1R Phosphorylation [4]: 412 ng/mL; IC50 [nM], inhibition of the survival of monocytes [4]: 2.4 nM; percentage (%) of expected binding response [5]: 42%; percentage (%) of expected binding response [6]: -2%; Kd [7]: 2.73 nM; koff [7]: 0.00139 s⁻¹; kon [7]: 509000 M⁻¹ s⁻¹; t1/2 [7]: 8.31 min
2 | <CSF-1R>10A4.1G11 (antibody, V domains shown, Mouse monoclonal antibody from a hybridoma) VH: EVQLQQFGTELVKPGASVKISCKASGYTFTDYNMDWVKQSHGKSLEWIGDINPNYDSTTYNQKFKGKATLTVDKSSSTAYMELRSLTSEDTAVYYCARWRFFAMDYWGQGTSVTVSS VL: DIQMTQSSSSFSVSLGDRVTITCKASEDIYNRLAWYQQKPGNAPRLLISGASSLETGVPSRFSGSGSGKDYTLSITSLQTEDVATYYCQQYWSIPWTFGGGTKLEIKR | 144 | 15.4 | 0.4 | 3 | 1.77 | 0.0013 | 740000 | 8.89 | 0.0634 | –
3 | <CSF-1R>7H5.2G10 (antibody, V domains shown, Mouse monoclonal antibody from a hybridoma (NMRI mice); also called deposited antibody DSM ACC2922) VH: EVQLQQSGPELVKPGASMKISCKASGYSFTDYTVNWVKQSHGENLDWIGLIIPYNGGTSYNHNFRGKATLTVDKSSSTAYMELLSLTSEDSAVYYCTRGGGDFTTGYTMDYWGHGTSVTVSS VL: DIQMTQSSSYLSVSLGGTVTINCKASDHIHDWLAWYQQQPGNAPRLLISGATSLETGVPSRFSGGGSGKDYSLIITSLQTEDFATYYCQQYWSIPWTFGGGTKLEIKR | 112 | 49 | 1 | 2 | 0.54 | 0.00038 | 700000 | 30.4 | 0.0269 | –
4 | <CSF-1R>6G4.1C8 (antibody, V domains shown, Mouse monoclonal antibody from a hybridoma) VH: EVQLQQSGPELVKPGASMKISCKASGYSFTDYTVNWVKQSHGENLDWIGLIIPYNGGTSYNHNFRGKATLTVDKSSSTAYMELLSLTSDDSAVYYCTRGGGDFTTGYTMDYWGQGTSVTVSS VL: DIQMTQSSSYLSVSLGGTVTINCKASDHIHNWLAWYQQQPGNAPRLLISGATSLETGVPSRFSGGGSGKDYSLIITSLQTEDVATYYCQQYWSIPWTFGGGTKLEIKR | 91 | 82.6 | – | 3 | 0.52 | 0.00029 | 570000 | 39.4 | 0.0212 | –

Source: US20120329997A1 (Hoffmann-La Roche, published 2012)
